# Assay results from US20090324700A1, “METHODS AND COMPOSITIONS FOR THE INHIBITION OF CATHEPSINS” (priority 2003, published 2009).
# T1: human cathepsin G (Homo sapiens, UniProt P08311)
# T1 construct: purchased Calbiochem or Athens Research and Technology
# T1 sequence (P08311 21-244): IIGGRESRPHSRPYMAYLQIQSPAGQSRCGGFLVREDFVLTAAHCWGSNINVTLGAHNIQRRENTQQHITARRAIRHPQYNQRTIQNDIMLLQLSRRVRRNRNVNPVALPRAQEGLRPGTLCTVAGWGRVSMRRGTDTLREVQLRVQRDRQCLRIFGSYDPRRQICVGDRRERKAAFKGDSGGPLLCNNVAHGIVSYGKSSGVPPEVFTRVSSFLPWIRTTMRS
# B1: Spi2A: murine Spi2A polypeptide, SEQ ID NO:2; purified as C-terminal 3×FLAG protein or expressed from MIGR1 retrovirus in cells and bone-marrow chimeras (protein, listed as Mus musculus)
# chain: MAGVSPAVFGCPDVTLGRNTAVREVQENVTSVDSLTLVSSNTDFAFSLYRKLVLKNPDENVVFSPFSICTALALLSLGAKSNTLKEILEGLKFNLTETPEPDIHQGFRYLLDLLSQPGNQVQISTGSALFIEKHLQILAEFKEKARALYQAEAFTADFQQPLKATKLINDYVSNHTQGKIKELISGLKESTLMVLVNYIYFKGKWKNPFDPNDTFKSEFYLDEKRSVIVSMMKTGYLTTPYFRDEELSCTVVELKYTGNASAMFILPDQGRMQQVEASLQPETLRKWKNSLKPRMIHELRLPKFSISTDYSLEHILPELGIREVFSTHADLSAITGTKDLRVSQVVHKAVLDVAEKGTEAAAATGMAGVGCCAVFDFLEIFFNRPFLMIISDTKAHIALFMAKVTNPERSTNFPNGEGASSQRLESKRLCFGDPLCLIGQ
# modifications: C-terminal 3xFLAG tag
# notes: purified as C-terminal 3×FLAG protein or expressed from MIGR1 retrovirus in cells and bone-marrow chimeras
# Experiments:
# RelA^−/− MEFs [1] = test: Survival assay, TNF-α and CHX, RelA^−/− MEFs; type: cell-based, mouse
# NF-κB = NF-κB activation, EMSA, RelA^−/− MEFs; type: cell-based, mouse; conditions: TNF-α stimulation
# Experimental: The possibility that Spi2A protects from TNF-α-induced apoptosis by directly activating NF-κB was examined. Therefore, using electrophoretic mobility shift assays (EMSAs), studies were conducted to determine whether Spi2A itself promotes NF-κB activation in nuclei from Rel A^−/− MEFs transduced with Spi2A or whether the abrogation of Spi2A mRNA up-regulation by Spi2A antisense message inhibits NF-κB activation in Rel A^+/+ MEFs. […] In Rel A^+/+ MEFs, super-shift analysis confirmed the induction of p50/Rel A by TNF-α. […] Thus, the anti-apoptotic activity of Spi2A is unlikely to be mediated through the modulation of NF-κB activation.
# RelA^−/− MEFs [2] = test: Survival assay, sphingosine, RelA^−/− MEFs; type: cell-based, mouse; conditions: sphingosine 10-50 μM, 2 h; FIG. 7B
# Experimental: Survival Assays. Although RelA^−/− MEFs are markedly more sensitive to TNF-α compared to RelA^+/+ MEFs, low levels of CHX (0.1 μg/ml) were used in the survival assays. This was to suppress any protective activity of constitutively active non-RelA NF-κB molecules that are present in RelA^−/− MEFs (FIG. 4). Thus, RelA^−/− MEFs were treated with CHX and TNF-α (R&D) and the number of live GFP-positive adherent cells was counted by flow cytometry after 16 h, if not indicated otherwise. Live cells were defined as those that excluded propidium iodide (PI-negative) and had the appropriate size, as defined by forward and side scatter characteristics (Coligan et al., 1995). For RelA^+/+ MEFs, TNF-α-cytotoxicity was determined after 16 h with CHX (10 μg/ml), if not indicated otherwise. Cathepsin B activity was inhibited by a 1 h pre-treatment of MEFs with CA-074 Me (30 μM) (Peptide Institute). […] RelA^−/− MEFs were treated with (10-50 μM) sphingosine (Calbiochem) and the number of live GFP-positive adherent cells was counted by flow cytometry after 2 h.
# RelA^−/− MEFs [3] = test: ROS production (dihydroethidium), RelA^−/− MEFs; type: cell-based, mouse; conditions: TNF-α 0.2 ng/ml, CHX 0.1 μg/ml; FIG. 5D
# Experimental: Death effector assays. Death effector pathways were induced in […] MEFs by treatment TNF-α (0.2 ng/ml) and CHX (0.1 μg/ml). Assays for executioner proteases (caspases and cathepsin B) were performed on crude cytoplasmic extracts (Stegh et al., 2000). Briefly, MEFs (10^6) were lysed in 10 mM Tris-Cl, pH 7.5, 100 mM NaCl, 1 mM EDTA, 0.01% Triton X-100 (50 μl) for 30 min on ice then centrifuged at 15,000 g for 30 min at 4° C. and the supernatant recovered. Protein concentration was determined by Lowry assay (DC-protein assay kit, Biorad). Western immunoblots were performed on crude cytosolic extracts (50 μg per lane) using standard protocols and probed with the following antibodies: goat anti-mouse Bid antiserum (1 μg/ml; R&D systems), rabbit anti-human caspase 9 antiserum (2 μg/ml; Cell Signaling Technology), rabbit anti-human caspase 3 antiserum (2 μg/ml; Cell Signaling Technology), mouse anti-human caspase 8 monoclonal antibody clone 12F5 (1 μg/ml; Axxora). […]
# Mitochondrial membrane potential and ROS production were measured using the fluorescent dyes JC-1 (3 μg/ml) and dihydroethidium (HE) (5 μM)(Molecular Probes) respectively, and flow cytometry according to the manufacturer's instructions.
# human cathepsin G = biological target: T1, human cathepsin G; test: Protease specificity of Spi2A: cathepsin G; type: biochemical; conditions: protease 20 nM, Spi2A 200 nM, 1 h at 37° C; FIG. 6B
# Experimental: Protease specificity of Spi2A. RelA^−/− MEFs were transduced with retrovirus encoding Spi2A with a C-terminal 3×FLAG epitope tag and Spi2A-3×FLAG purified using a method described previously (Cooley et al., 1998). Briefly, cells (3×10^9) were lysed and Spi2A-3×FLAG (75 μg) purified by batch Q-Fast Flow ion-exchange chromatography (Pharmacia Biotech) after elution at 160-220 mM NaCl followed by anti-FLAG antibody columns, performed according to manufacturer's instructions (Sigma-Aldrich). Spi2A-3×FLAG was dialysed into PBS and stored as aliquots at −80° C. until needed.
# Proteases were purchases from the manufacturers (Calbiochem or Athens Research and Technology) except granzymes A and B which were purified as described (Hanna et al., 1993) and cathespin V and K, which were purified as described (Bromme et al., 1999; Linnevers et al., 1997). Proteases (20 nM) were incubated in the appropriate assay buffer with Spi2A at 200 nM (at least 10-fold excess of inhibitor to maintain pseudo-first order conditions) for 1 h at 37° C. Control samples included only the enzyme, without the inhibitor. At the end of 1 h protease activity was assayed. […] Substrate hydrolysis was measured in a fluorescence microtiter plate reader (Spectramax Gemini XS, Molecular Devices). Percentage inhibition was calculated from the residual enzyme activity compared to no Spi2A controls. […]
molecule,measurement,setting,value
B1,Protection at low concentrations of TNF-α,"RelA^−/− MEFs [1]; 0.5 ng/ml TNF-α, FIG. 2B",virtually complete
same,"Percentage survival after TNF-α and CHX, retrovirally transduced cells vs GFP","RelA^−/− MEFs [1]; 16 h, CHX 0.1 μg/ml, FIG. 1B, 2B",markedly improved survival
same,Protection at high concentrations of TNF-α,"RelA^−/− MEFs [1]; after 16 hours, FIG. 2B",dramatic
same,"Expression of NF-κB complexes (p50/p50, p50/Rel) in nuclei",NF-κB,did not affect
same,Protection from death after treatment with sphingosine,RelA^−/− MEFs [2],could protect
same,production of reactive oxygen species (ROS),RelA^−/− MEFs [3],suppressed
same,Inhibition of protease by Spi2A (percentage inhibition),human cathepsin G,inhibited
